Test results from the supplement of paper PMC9876800.

Test system: peptide library, one residue held at a place counted from the S/T acceptor
Assay: relative phosphorylation of the sub-library (ratio to the mean residue at this position); human; higher = residue favoured
How it was run: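 Purified recombinant kinases (human or orthologue constructs) were incubated in 384-well plates with biotinylated degenerate peptide sub-libraries, each fixing one residue at one position around a central Ser/Thr. Peptides were at 50 μM, with 50 μM ATP spiked with γ-32P-ATP, for 90 min under kinase-specific conditions. Spots on streptavidin membranes were phosphorimaged and quantified by densitometry. Relative sub-library phosphorylation is a ratio to the mean residue at that position.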

CHEK2, construct: Full length, sequence (O96017 whole entry, looked up): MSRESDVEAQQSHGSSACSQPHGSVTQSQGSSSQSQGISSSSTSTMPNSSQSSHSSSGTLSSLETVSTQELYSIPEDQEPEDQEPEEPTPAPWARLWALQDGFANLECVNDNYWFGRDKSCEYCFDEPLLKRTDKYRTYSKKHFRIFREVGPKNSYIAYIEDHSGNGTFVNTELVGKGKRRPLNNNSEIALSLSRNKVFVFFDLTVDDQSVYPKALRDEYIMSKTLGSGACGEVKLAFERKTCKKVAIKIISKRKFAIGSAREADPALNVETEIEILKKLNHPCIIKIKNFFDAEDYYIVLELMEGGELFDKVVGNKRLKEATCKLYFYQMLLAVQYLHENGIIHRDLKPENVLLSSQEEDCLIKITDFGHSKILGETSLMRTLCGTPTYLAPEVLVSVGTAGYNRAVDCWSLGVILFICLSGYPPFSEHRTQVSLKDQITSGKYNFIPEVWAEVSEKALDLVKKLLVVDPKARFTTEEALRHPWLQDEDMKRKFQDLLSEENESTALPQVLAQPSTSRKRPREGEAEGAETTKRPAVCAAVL
CDK10, construct: Full length, sequence (Q15131 whole entry, looked up): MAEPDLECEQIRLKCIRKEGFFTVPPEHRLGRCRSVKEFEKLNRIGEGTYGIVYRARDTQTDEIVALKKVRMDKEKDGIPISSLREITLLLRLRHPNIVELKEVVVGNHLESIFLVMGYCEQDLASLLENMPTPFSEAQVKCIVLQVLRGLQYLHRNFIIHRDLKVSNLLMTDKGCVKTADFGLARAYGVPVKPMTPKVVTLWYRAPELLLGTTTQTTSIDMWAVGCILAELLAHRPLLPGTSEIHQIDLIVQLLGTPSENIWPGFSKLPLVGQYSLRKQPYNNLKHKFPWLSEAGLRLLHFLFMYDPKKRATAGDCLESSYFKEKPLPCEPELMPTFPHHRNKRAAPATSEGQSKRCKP
CIT, construct: aa1-449, sequence (O14578 1-449, looked up): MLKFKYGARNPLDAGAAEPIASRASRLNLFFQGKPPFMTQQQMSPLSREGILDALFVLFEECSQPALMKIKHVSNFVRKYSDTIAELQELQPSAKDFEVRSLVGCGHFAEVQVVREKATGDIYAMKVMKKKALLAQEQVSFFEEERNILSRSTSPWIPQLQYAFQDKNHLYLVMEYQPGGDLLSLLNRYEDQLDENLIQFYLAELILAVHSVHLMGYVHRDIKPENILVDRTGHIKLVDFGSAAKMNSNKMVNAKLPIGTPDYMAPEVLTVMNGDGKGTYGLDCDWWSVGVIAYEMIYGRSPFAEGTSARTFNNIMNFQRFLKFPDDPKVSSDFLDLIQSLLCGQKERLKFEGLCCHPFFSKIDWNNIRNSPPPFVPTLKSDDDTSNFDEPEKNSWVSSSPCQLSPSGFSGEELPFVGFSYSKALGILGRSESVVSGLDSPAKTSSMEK

CIT, construct: aa1-449 (from UniProt O14578)
relative phosphorylation
Settings	at +1	at +2	at +3	at +4	at -1	at -2	at -3	at -4	at -5
A fixed	0.788	1.01	0.8	0.784	0.721	0.715	0.553	1	0.448
D fixed	0.453	0.586	0.789	0.886	0.385	0.254	0.176	0.422	0.299
E fixed	0.373	0.517	0.638	0.851	0.372	0.28	0.171	0.504	0.276
F fixed	1.34	1	1.37	0.882	0.778	0.406	0.259	0.622	0.767
G fixed	0.937	2.04	1.1	1.13	0.905	0.435	0.382	0.931	0.498
H fixed	1.24	1.3	1.67	1.15	1.75	0.874	0.797	0.997	0.804
I fixed	0.914	0.884	0.866	0.948	0.394	0.693	0.251	0.612	1.09
K fixed	0.779	0.694	0.781	0.858	2.2	3.1	1.76	2.77	1.75
L fixed	1.02	0.768	0.995	1.01	0.874	0.826	0.25	0.74	0.89
M fixed	1.14	0.77	0.889	1.03	0.888	0.88	0.303	0.801	0.603
N fixed	1.41	1.06	0.882	1.14	1.17	0.779	0.4	0.735	0.465
P fixed	0.461	1.36	1.23	1.43	1.39	0.42	0.739	0.978	0.631
Q fixed	1.15	0.762	0.931	1.04	0.969	1.03	0.7	0.924	0.72
R fixed	1.05	0.907	0.763	0.874	1.85	4.68	9.39	3.11	5.94
V fixed	0.734	0.86	0.816	0.805	0.506	0.838	0.299	0.683	0.523
W fixed	1.55	1.16	1.31	1.21	0.682	0.407	0.302	0.571	0.591
Y fixed	1.66	1.33	1.17	0.979	1.17	0.389	0.272	0.598	0.707
pThr fixed	0.466	0.609	0.878	1.12	0.349	0.323	0.259	0.491	0.405
pTyr fixed	0.784	0.65	0.802	0.925	0.34	0.333	0.226	0.395	0.554

CHEK2, construct: Full length (from UniProt O96017)
relative phosphorylation
Settings	at +1	at +2	at +3	at +4	at -1	at -2	at -3	at -4	at -5
A fixed	0.589	0.731	0.81	0.837	0.816	1.26	0.562	0.987	0.172
D fixed	0.317	0.397	0.484	0.53	0.702	0.276	0.1	0.367	0.236
E fixed	0.402	0.382	0.407	0.541	0.383	0.785	0.136	0.839	0.307
F fixed	1.88	1.06	1.33	0.985	0.809	0.672	0.197	0.895	1.42
G fixed	0.741	0.784	0.818	0.987	0.707	0.679	0.275	0.743	0.514
H fixed	0.892	1.43	1.05	1.27	1.21	1.01	0.614	0.953	0.619
I fixed	1.51	0.934	0.975	0.941	0.81	0.598	0.199	0.924	1.7
K fixed	1.02	1.12	1.16	1.33	1.71	1.53	2.26	1.63	0.694
L fixed	1.41	0.851	1.02	0.859	1.28	0.843	0.217	1.02	2.42
M fixed	1.5	0.978	1.04	0.929	1.15	1.37	0.256	1.17	1.55
N fixed	0.93	0.941	0.889	1.14	1.61	0.832	0.208	0.651	0.491
P fixed	0.389	0.946	0.956	1.04	1.06	0.219	0.177	0.548	1.03
Q fixed	0.877	0.801	0.857	0.945	0.84	1.71	0.543	1.09	0.815
R fixed	1.34	1.97	1.53	1.65	1.63	2.92	10.5	2.23	1.52
V fixed	1.04	0.875	0.848	0.731	0.777	0.621	0.205	1.1	1.39
W fixed	1.07	1.24	1.44	1.17	0.587	0.639	0.284	0.807	0.914
Y fixed	1.09	1.55	1.39	1.12	0.924	1.04	0.265	1.05	1.19
pThr fixed	0.96	1.06	0.653	0.586	0.354	0.477	0.214	0.662	0.472
pTyr fixed	0.529	0.489	0.659	0.575	0.603	0.4	0.178	0.574	0.725

CDK10, construct: Full length (from UniProt Q15131)
relative phosphorylation
Settings	at +1	at +2	at +3	at +4	at -1	at -2	at -3	at -4	at -5
A fixed	0.232	0.641	0.676	0.671	0.931	0.896	0.838	0.851	0.845
D fixed	0.124	0.342	0.305	0.505	0.378	0.311	0.302	0.355	0.357
E fixed	0.115	0.297	0.26	0.337	0.231	0.244	0.276	0.361	0.293
F fixed	0.303	0.554	0.721	0.643	0.669	0.667	0.635	0.782	1.02
G fixed	1.3	0.952	0.795	1.09	1.56	0.715	1.01	0.955	1.05
H fixed	0.235	1.22	1.23	1.37	0.915	0.821	1.11	1.13	1.08
I fixed	0.282	0.598	0.67	0.655	0.284	0.724	0.722	0.652	0.713
K fixed	0.397	3.05	1.66	2.1	2.08	1.64	1.66	2.23	2.24
L fixed	0.296	0.683	0.66	0.661	0.787	1.15	0.78	0.658	0.78
M fixed	0.32	0.572	0.618	0.638	1.01	1.06	0.776	0.831	0.757
N fixed	0.247	0.864	0.852	0.868	0.786	0.753	0.749	0.841	0.741
P fixed	11.8	0.782	1.13	1.02	1.58	2.09	0.88	1.08	0.97
Q fixed	0.294	0.967	0.874	1.24	0.859	0.958	0.874	0.973	0.911
R fixed	0.405	3.58	4.52	2.61	2.65	2.65	3.91	2.3	2.25
V fixed	0.245	0.515	0.716	0.691	0.408	0.731	0.625	0.628	0.605
W fixed	0.241	0.541	0.621	0.967	1.11	0.872	0.997	1.46	1.26
Y fixed	0.209	0.843	0.686	0.938	0.77	0.727	0.86	0.918	1.12
pThr fixed	0.506	0.924	0.88	0.879	0.602	0.737	0.853	0.941	0.789
pTyr fixed	0.461	0.367	0.508	0.431	0.375	0.388	0.538	0.559	0.537
